Series [1] has as its target T1, GFP-BPC6 (Arabidopsis thaliana, UniProt Q8L999 1-342).
T1 sequence: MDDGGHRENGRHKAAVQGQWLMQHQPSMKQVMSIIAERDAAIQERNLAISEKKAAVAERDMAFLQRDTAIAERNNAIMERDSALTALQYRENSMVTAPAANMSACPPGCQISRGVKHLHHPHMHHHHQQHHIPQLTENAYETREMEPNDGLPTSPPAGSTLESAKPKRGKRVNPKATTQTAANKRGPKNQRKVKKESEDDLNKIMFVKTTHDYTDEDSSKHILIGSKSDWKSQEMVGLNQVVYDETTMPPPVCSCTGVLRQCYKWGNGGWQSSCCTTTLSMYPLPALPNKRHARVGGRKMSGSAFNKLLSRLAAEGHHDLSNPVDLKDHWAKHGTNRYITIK
Kind of series: qDPI-ELISA; negative binding probe, used as background; DPI-ELISA/qDPI-ELISA: 3 ug total E. coli protein extract and 2 pmol biotinylated dsDNA per well in buffered solution; salt, pH and temperature not stated (cited protocols). Particulars: protein: recombinant; tags: GFP fusion; label: biotin on sense strand.

Series [2] concerns the target T2, BPC1-WARH (Arabidopsis thaliana, UniProt Q9SKD0 1-270).
T2 sequence: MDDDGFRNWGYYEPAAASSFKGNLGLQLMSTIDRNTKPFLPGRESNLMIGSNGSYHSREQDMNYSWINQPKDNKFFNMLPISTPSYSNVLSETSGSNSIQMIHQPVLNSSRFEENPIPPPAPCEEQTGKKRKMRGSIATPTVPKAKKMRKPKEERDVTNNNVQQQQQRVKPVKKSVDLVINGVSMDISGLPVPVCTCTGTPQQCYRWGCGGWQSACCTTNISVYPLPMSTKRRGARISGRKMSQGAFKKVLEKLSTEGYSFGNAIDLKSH
In words: DPI-ELISA; DPI-ELISA/qDPI-ELISA: 3 ug total E. coli protein extract and 2 pmol biotinylated dsDNA per well in buffered solution; salt, pH and temperature not stated (cited protocols). As to conditions: protein: recombinant; tags: N-terminal 6xHis (pET32b-GW); label: 5' or 3' biotin not specified, sense strand biotin. A general note: ELISA stands for enzyme-linked immunosorbent assay.

Series [3] concerns the target T3, BPC1-TIR (Arabidopsis thaliana, UniProt Q9SKD0 1-280).
T3 sequence: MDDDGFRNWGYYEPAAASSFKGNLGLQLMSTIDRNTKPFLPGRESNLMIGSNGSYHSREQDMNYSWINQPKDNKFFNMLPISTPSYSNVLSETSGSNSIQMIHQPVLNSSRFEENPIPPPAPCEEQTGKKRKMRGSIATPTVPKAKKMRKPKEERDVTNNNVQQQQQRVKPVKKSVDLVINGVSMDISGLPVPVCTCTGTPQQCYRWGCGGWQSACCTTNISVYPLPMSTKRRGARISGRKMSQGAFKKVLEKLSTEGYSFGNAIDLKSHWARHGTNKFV
In words: DPI-ELISA; about 30% less than wild type; DPI-ELISA/qDPI-ELISA: 3 ug total E. coli protein extract and 2 pmol biotinylated dsDNA per well in buffered solution; salt, pH and temperature not stated (cited protocols). Particulars: protein: recombinant; tags: N-terminal 6xHis (pET32b-GW); label: 5' or 3' biotin not specified, sense strand biotin.

Series [4] concerns the target T1, GFP-BPC6. In words: qDPI-ELISA; similar to the other 2x GAGA probes; DPI-ELISA/qDPI-ELISA: 3 ug total E. coli protein extract and 2 pmol biotinylated dsDNA per well in buffered solution; salt, pH and temperature not stated (cited protocols). As to conditions: protein: recombinant; tags: GFP fusion; label: biotin on sense strand.
For series [5], the target named is T1, GFP-BPC6. Kind of series: qDPI-ELISA; DPI-ELISA/qDPI-ELISA: 3 ug total E. coli protein extract and 2 pmol biotinylated dsDNA per well in buffered solution; salt, pH and temperature not stated (cited protocols). Particulars: protein: recombinant; tags: GFP fusion; label: biotin on sense strand.
Series [6] concerns the target T4, BPC1 (Arabidopsis thaliana, UniProt Q9SKD0 1-283).
T4 sequence: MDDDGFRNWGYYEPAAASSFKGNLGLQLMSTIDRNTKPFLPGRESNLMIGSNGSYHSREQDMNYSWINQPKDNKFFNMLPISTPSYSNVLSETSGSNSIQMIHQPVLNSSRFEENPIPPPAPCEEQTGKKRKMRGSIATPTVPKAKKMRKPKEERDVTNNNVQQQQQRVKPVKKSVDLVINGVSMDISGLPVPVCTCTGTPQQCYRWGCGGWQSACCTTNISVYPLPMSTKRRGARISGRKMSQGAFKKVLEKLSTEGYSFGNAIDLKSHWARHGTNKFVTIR
In words: DPI-ELISA; DPI-ELISA/qDPI-ELISA: 3 ug total E. coli protein extract and 2 pmol biotinylated dsDNA per well in buffered solution; salt, pH and temperature not stated (cited protocols). As to conditions: protein: recombinant; tags: N-terminal 6xHis (pET32b-GW); label: biotin on sense strand.

In series [7] the target is T4, BPC1. Kind of series: DPI-ELISA; comparable to K4; DPI-ELISA/qDPI-ELISA: 3 ug total E. coli protein extract and 2 pmol biotinylated dsDNA per well in buffered solution; salt, pH and temperature not stated (cited protocols). Particulars: protein: recombinant; tags: N-terminal 6xHis (pET32b-GW); label: biotin on sense strand.
In series [8] the target is T1, GFP-BPC6. Kind of series: qDPI-ELISA; 2.5-times lower than BKn3; DPI-ELISA/qDPI-ELISA: 3 ug total E. coli protein extract and 2 pmol biotinylated dsDNA per well in buffered solution; salt, pH and temperature not stated (cited protocols). Particulars: protein: recombinant; tags: GFP fusion; label: biotin on sense strand.

Residue numbers refer to the chain shown, from its start.

B1: Kneg (dsDNA)
DNA 1: TAATGCAGCAAGTAAGACTACGACTGTTTC
DNA 2: GAAACAGTCGTAGTCTTACTTGCTGCATTA
Consider B1, for which the binding result in series [1] is recorded as “no binding”.

B2: K4 (dsDNA)
DNA 1: TAAAGGAGAAAGAAAGAGAAAGAGAGTTTC
DNA 2: GAAACTCTCTTTCTCTTTCTTTCTCCTTTA
With B2, the binding result in series [2] was “no binding”. For the same molecule, in series [3], the binding signal is ~70 % of wild-type BPC1 signal.

B3: K4mut7mut5 (dsDNA)
DNA 1: B2 DNA 1 with A9C, A13T, A21C
DNA 2: B2 DNA 2 with T10G, T18A, T22G
For B3, the binding result in series [4] is recorded as “binds”.

B4: K12 (dsDNA)
DNA 1: AATTGGAAATATGGAGAGAGAAAACAAATC
DNA 2: GATTTGTTTTCTCTCTCCATATTTCCAATT
On to B4, for which the binding result in series [4] was “binds”.

B5: GAGA2 (dsDNA)
DNA 1: GGAGCAAGTAAGAGATGAAACGAGAGTTTC
DNA 2: GAAACTCTCGTTTCATCTCTTACTTGCTCC
Consider B5, for which, in series [4], the binding result is “binds”.

B6: BKn3 (dsDNA)
DNA 1: CCGCCATTAATTCATGAGAGAGAGAGAGAGACCAGAGATAA
DNA 2: TTATCTCTGGTCTCTCTCTCTCTCTCATGAATTAATGGCGG
B6: the binding signal in series [5] was ~2.5 fold of KNAT1/BP fluorescence; in series [6] it was ~2 fold of K4 signal.

B7: KNAT1/BP (dsDNA)
DNA 1: ATGAGGGCAAAGAGAGATGAGAGAAAATTTATACGTAC
DNA 2: GTACGTATAAATTTTCTCTCATCTCTCTTTGCCCTCAT
With B7, the binding result in series [7] and in series [8] was “binds” each time.

Values taken from PMC6477699, “Phylogenetic Analyses and GAGA-Motif Binding Studies of BBR/BPC Proteins Lend to Clues in GAGA-Motif Recognition and a Regulatory Role in Brassinosteroid Signaling”.
